In US20240092935A1 one finds Kd data, which are given here for 1 substance.

This test deals with Asialo-BSM (desialylated bovine submaxillary mucin) (bovine). As to the kind of experiment: fluorescence binding assay on an Asialo-BSM-coated 96-well plate (0.5 µg/well), biotinylated VVA detected with Alexa Fluor 488 streptavidin, fit with GraphPad Prism.

One may read the Kd as the constant that tells how readily two partners part at equilibrium. “Vicia villosa agglutinin (VVA), biotinylated (from UniProt P56625 1-185)” registered an equilibrium dissociation constant (Kd) of 53.3 nM.
